What was measured:
[1] = target: CEA (carcino-embryonic antigen) (UniProt P06731); assay: enzyme activity specificity test, CEA-coated plate; pH 5.0 eluate 1:3, dilution 1:2
[2] = target: CEA (carcino-embryonic antigen) (UniProt P06731); assay: enzyme activity specificity test, CEA-coated plate; pH 5.0 eluate 1:3, dilution 1:4
[3] = target: CEA (carcino-embryonic antigen) (UniProt P06731); assay: enzyme activity specificity test, CEA-coated plate; pH 5.0 eluate 1:3, dilution 1:8
[4] = target: CEA (carcino-embryonic antigen) (UniProt P06731); assay: enzyme activity specificity test, CEA-coated plate; pH 5.0 eluate 1:3, dilution 1:16
[5] = target: CEA (carcino-embryonic antigen) (UniProt P06731); assay: enzyme activity specificity test, CEA-coated plate; pH 5.0 eluate 1:3, dilution 1:32
[6] = target: CEA (carcino-embryonic antigen) (UniProt P06731); assay: enzyme activity specificity test, CEA-coated plate; pH 5.0 eluate 1:3, dilution 1:64
[7] = target: CEA (carcino-embryonic antigen) (UniProt P06731); assay: enzyme activity specificity test, CEA-coated plate; pH 5.0 eluate 1:3, dilution 1:128
[8] = target: CEA (carcino-embryonic antigen) (UniProt P06731); assay: enzyme activity specificity test, CEA-coated plate; pH 5.0 eluate 1:3, dilution 1:256
[9] = target: CEA (carcino-embryonic antigen) (UniProt P06731); assay: enzyme activity specificity test, CEA-coated plate; disrupted cell suspension 1:3, dilution 1:2
[10] = target: CEA (carcino-embryonic antigen) (UniProt P06731); assay: enzyme activity specificity test, CEA-coated plate; disrupted cell suspension 1:3, dilution 1:4
[11] = target: CEA (carcino-embryonic antigen) (UniProt P06731); assay: enzyme activity specificity test, CEA-coated plate; disrupted cell suspension 1:3, dilution 1:8
[12] = target: CEA (carcino-embryonic antigen) (UniProt P06731); assay: enzyme activity specificity test, CEA-coated plate; disrupted cell suspension 1:3, dilution 1:16
[13] = target: CEA (carcino-embryonic antigen) (UniProt P06731); assay: enzyme activity specificity test, CEA-coated plate; disrupted cell suspension 1:3, dilution 1:32
[14] = target: CEA (carcino-embryonic antigen) (UniProt P06731); assay: enzyme activity specificity test, CEA-coated plate; disrupted cell suspension 1:3, dilution 1:64
[15] = target: CEA (carcino-embryonic antigen) (UniProt P06731); assay: enzyme activity specificity test, CEA-coated plate; disrupted cell suspension 1:3, dilution 1:128
[16] = target: CEA (carcino-embryonic antigen) (UniProt P06731); assay: enzyme activity specificity test, CEA-coated plate; disrupted cell suspension 1:3, dilution 1:256
[17] = target: CEA (carcino-embryonic antigen) (UniProt P06731); assay: enzyme activity specificity test, CEA-coated plate; pH 5.0 eluate ultrafiltrate 1:1, dilution 1:2
[18] = target: CEA (carcino-embryonic antigen) (UniProt P06731); assay: enzyme activity specificity test, CEA-coated plate; pH 5.0 eluate ultrafiltrate 1:1, dilution 1:4
[19] = target: CEA (carcino-embryonic antigen) (UniProt P06731); assay: enzyme activity specificity test, CEA-coated plate; pH 5.0 eluate ultrafiltrate 1:1, dilution 1:8
[20] = target: CEA (carcino-embryonic antigen) (UniProt P06731); assay: enzyme activity specificity test, CEA-coated plate; pH 5.0 eluate ultrafiltrate 1:1, dilution 1:16
[21] = target: CEA (carcino-embryonic antigen) (UniProt P06731); assay: enzyme activity specificity test, CEA-coated plate; pH 5.0 eluate ultrafiltrate 1:1, dilution 1:32
[22] = target: CEA (carcino-embryonic antigen) (UniProt P06731); assay: enzyme activity specificity test, CEA-coated plate; pH 5.0 eluate ultrafiltrate 1:1, dilution 1:64
[23] = target: CEA (carcino-embryonic antigen) (UniProt P06731); assay: enzyme activity specificity test, CEA-coated plate; pH 5.0 eluate ultrafiltrate 1:1, dilution 1:128
[24] = target: CEA (carcino-embryonic antigen) (UniProt P06731); assay: enzyme activity specificity test, CEA-coated plate; pH 5.0 eluate ultrafiltrate 1:1, dilution 1:256
[25] = target: CEA (carcino-embryonic antigen) (UniProt P06731); assay: enzyme activity specificity test, CEA-coated plate; void volume of affinity column 1:1, dilution 1:2
[26] = target: CEA (carcino-embryonic antigen) (UniProt P06731); assay: enzyme activity specificity test, CEA-coated plate; void volume of affinity column 1:1, dilution 1:4
[27] = target: CEA (carcino-embryonic antigen) (UniProt P06731); assay: enzyme activity specificity test, CEA-coated plate; void volume of affinity column 1:1, dilution 1:8
[28] = target: CEA (carcino-embryonic antigen) (UniProt P06731); assay: enzyme activity specificity test, CEA-coated plate; pH 5.0 eluate ultraconcentrate 1:10, dilution 1:2
[29] = target: CEA (carcino-embryonic antigen) (UniProt P06731); assay: enzyme activity specificity test, CEA-coated plate; pH 5.0 eluate ultraconcentrate 1:10, dilution 1:4
[30] = target: CEA (carcino-embryonic antigen) (UniProt P06731); assay: enzyme activity specificity test, CEA-coated plate; pH 5.0 eluate ultraconcentrate 1:10, dilution 1:8
[31] = target: CEA (carcino-embryonic antigen) (UniProt P06731); assay: enzyme activity specificity test, CEA-coated plate; void volume of affinity column 1:1, dilution 1:16
[32] = target: CEA (carcino-embryonic antigen) (UniProt P06731); assay: enzyme activity specificity test, CEA-coated plate; void volume of affinity column 1:1, dilution 1:32
[33] = target: CEA (carcino-embryonic antigen) (UniProt P06731); assay: enzyme activity specificity test, CEA-coated plate; void volume of affinity column 1:1, dilution 1:64
[34] = target: CEA (carcino-embryonic antigen) (UniProt P06731); assay: enzyme activity specificity test, CEA-coated plate; pH 5.0 eluate ultraconcentrate 1:10, dilution 1:16
[35] = target: CEA (carcino-embryonic antigen) (UniProt P06731); assay: enzyme activity specificity test, CEA-coated plate; pH 5.0 eluate ultraconcentrate 1:10, dilution 1:32
[36] = target: CEA (carcino-embryonic antigen) (UniProt P06731); assay: enzyme activity specificity test, CEA-coated plate; pH 5.0 eluate ultraconcentrate 1:10, dilution 1:64
[37] = target: CEA (carcino-embryonic antigen) (UniProt P06731); assay: enzyme activity specificity test, CEA-coated plate; void volume of affinity column 1:1, dilution 1:128
[38] = target: CEA (carcino-embryonic antigen) (UniProt P06731); assay: enzyme activity specificity test, CEA-coated plate; void volume of affinity column 1:1, dilution 1:256
[39] = target: CEA (carcino-embryonic antigen) (UniProt P06731); assay: enzyme activity specificity test, CEA-coated plate; pH 5.0 eluate ultraconcentrate 1:10, dilution 1:128
[40] = target: CEA (carcino-embryonic antigen) (UniProt P06731); assay: enzyme activity specificity test, CEA-coated plate; pH 5.0 eluate ultraconcentrate 1:10, dilution 1:256

UniProt P06731, sequence (P06731 35-685 limits assumed): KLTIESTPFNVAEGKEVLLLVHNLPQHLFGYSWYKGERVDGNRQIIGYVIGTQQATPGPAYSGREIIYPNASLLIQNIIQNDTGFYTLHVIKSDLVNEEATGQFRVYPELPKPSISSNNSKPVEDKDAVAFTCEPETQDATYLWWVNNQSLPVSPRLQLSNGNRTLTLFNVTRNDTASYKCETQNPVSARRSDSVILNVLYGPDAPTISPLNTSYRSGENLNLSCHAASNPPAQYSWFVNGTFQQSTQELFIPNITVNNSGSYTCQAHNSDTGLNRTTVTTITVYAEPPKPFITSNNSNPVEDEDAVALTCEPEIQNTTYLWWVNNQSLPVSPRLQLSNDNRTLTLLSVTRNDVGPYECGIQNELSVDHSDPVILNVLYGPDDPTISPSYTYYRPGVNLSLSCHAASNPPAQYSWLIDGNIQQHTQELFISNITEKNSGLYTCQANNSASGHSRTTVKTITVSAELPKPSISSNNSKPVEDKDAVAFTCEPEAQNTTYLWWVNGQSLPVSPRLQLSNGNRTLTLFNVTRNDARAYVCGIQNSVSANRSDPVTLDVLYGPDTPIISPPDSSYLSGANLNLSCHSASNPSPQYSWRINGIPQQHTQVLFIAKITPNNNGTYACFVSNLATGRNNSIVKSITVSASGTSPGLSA

B1: Fab BW 431/26-E. coli β-glucuronidase fusion protein (protein)
heavy: MEVQLQESGPGLVRPSQTLSLTCTVSGFTISSGYSWHWVRQPPGRGLEWIGYIQYSGITNYNPSLKSRVTMLVDTSKNQFSLRLSSVTAADTAVYYCAREDYDYHWYFDVWGQGSLVTVTVSSASTKGPSVFPLAPCSRSTSGGTAALGCLVKDYFPEPVTVSWNSGALTSGVHTFPAVLQSSGLYSLSSVVTVPSSSLGTQTYTCNVNHKPSNTKVDKRVELGSGSGSMVRPVETPTREIKKLDGLWAFSLDRENCGIDQRWWESALQESRAIAVPGSFNDQFADADIRNYAGNVWYQREVFIPKGWAGQRIVLRFDAVTHYGKVWVNNQEVMEHQGGYTPFEADVTPYVIAGKSVRITVCVNNELNWQTIPPGMVITDENGKKKQSYFHNFFNYAGIHRSVMLYTTPNTWVDDITVVTHVAQDCNHASVDWQVVANGDVSVELRDADQQVVATGQGTSGTLQVVNPHLWQPGEGYLYELCVTAKSQTECDIYPLRVGIRSVAVKGEQFLINHKPFYFTGFGRHEDADLRGKGFDNVLMVHDHALMDWIGANSYRTSHYPYAEEMLDWADEHGIVVIDETAAVGFNLSLGIGFEAGNKPKELYSEEAVNGETQQAHLQAIKELIARDKNHPSVVMWSIANEPDTRPQGAREYFAPLAEATRKLDPTRPITCVNVMFCDAHTDTISDLFDVLCLNRYYGWYVQSGDLETAEKVLEKELLAWQEKLHQPIIITEYGVDTLAGLHSMYTDMWSEEYQCAWLDMYHRVFDRVSAVVGEQVWNFADFATSQGILRVGGNKKGIFTRDRKPKSAAFLLQKRWTGMNFGEKPQQGGKQ
light: MDIQMTQSPSSLSASVGDRVTITCSTSSSVSYMHWYQQKPGKAPKLLIYSTSNLASGVPSRFSGSGSGTDFTFTISSLQPEDIATYYCHQWSSYPTFGQGTKVEIKRTVAAPSVFIFPPSDEQLKSGTASVVCLLNNFYPREAKVQWKVDNALQSGNSQESVTEQDSKDSTYSLSSTLTLSKADYEKHKVYACEVTHQGLSSPVTKSFNRGEC
[1]
  relative fluorescence units (FU): 7780 FU
[2]
  relative fluorescence units (FU): 7570 FU
[3]
  relative fluorescence units (FU): 6360 FU
[4]
  relative fluorescence units (FU): 4240 FU
[5]
  relative fluorescence units (FU): 1980 FU
[6]
  relative fluorescence units (FU): 816 FU
[7]
  relative fluorescence units (FU): 302 FU
[8]
  relative fluorescence units (FU): 114 FU
[9]
  relative fluorescence units (FU): 8180 FU
[10]
  relative fluorescence units (FU): 8150 FU
[11]
  relative fluorescence units (FU): 7530 FU
[12]
  relative fluorescence units (FU): 6630 FU
[13]
  relative fluorescence units (FU): 4560 FU
[14]
  relative fluorescence units (FU): 2510 FU
[15]
  relative fluorescence units (FU): 1020 FU
[16]
  relative fluorescence units (FU): 422 FU
[17]
  relative fluorescence units (FU): 74.7 FU
[18]
  relative fluorescence units (FU): 173 FU
[19]
  relative fluorescence units (FU): 90.2 FU
[20]
  relative fluorescence units (FU): 52.3 FU
[21]
  relative fluorescence units (FU): 38.8 FU
[22]
  relative fluorescence units (FU): 25.8 FU
[23]
  relative fluorescence units (FU): 23.5 FU
[24]
  relative fluorescence units (FU): 19.4 FU
[25]
  relative fluorescence units (FU): 6550 FU
[26]
  relative fluorescence units (FU): 5230 FU
[27]
  relative fluorescence units (FU): 3220 FU
[28]
  relative fluorescence units (FU): 7900 FU
[29]
  relative fluorescence units (FU): 8110 FU
[30]
  relative fluorescence units (FU): 8040 FU
[31]
  relative fluorescence units (FU): 1480 FU
[32]
  relative fluorescence units (FU): 525 FU
[33]
  relative fluorescence units (FU): 214 FU
[34]
  relative fluorescence units (FU): 7150 FU
[35]
  relative fluorescence units (FU): 5800 FU
[36]
  relative fluorescence units (FU): 3620 FU
[37]
  relative fluorescence units (FU): 86.2 FU
[38]
  relative fluorescence units (FU): 46.3 FU
[39]
  relative fluorescence units (FU): 1650 FU
[40]
  relative fluorescence units (FU): 666 FU
